Ends that are not written are not given here.
What was measured:
[1] = biological target: T1, A1PI (Homo sapiens, UniProt P01009); assay: A1PI binding on peptide-resin column, injection of 1 mg A1PI in equilibration buffer; conditions: for Percent A1PI Eluted by Fraction Based on Absorbance at 280 nm, 1M NaCl / Percent A1PI Eluted by Fraction Based on Absorbance at 280 nm, 2% Acetic Acid / Percent A1PI Eluted by Fraction Based on Absorbance at 280 nm, Flowthrough / Percent A1PI Eluted by Fraction, 1M NaCl / Percent A1PI Eluted by Fraction, 2% Acetic Acid / Percent A1PI Eluted by Fraction, Flowthrough: 1 mg A1PI in equilibration buffer; for Percent AlPI Eluted by Fraction, 1M NaCl / Percent AlPI Eluted by Fraction, 2% Acetic Acid / Percent AlPI Eluted by Fraction, Flowthrough: sequence order, 1 mg AlPI
T1 construct: Human plasma is currently the only approved source of therapeutic AlPI
In short: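 Percent of total eluted A1PI per fraction (flowthrough, NaCl steps, 2% acetic acid) determined by A280 integration or immunonephelometry. Columns of peptide-derivatized A-Totda-Toyopearl resin (0.1 mmole/g) received 1 mg A1PI at 4 °C or 20 °C, flow 865 or 523 μl/min.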

[2] = biological target: T1, A1PI; assay: A1PI purification from 5 mg hSA + 1 mg A1PI on peptide column, A1PI mass balance; format: binding; conditions: for Mass AlPI Eluted in Acid Eluate: nephelometry; for Mass Protein per Eluate Fraction, 1M NaCl / Mass Protein per Eluate Fraction, 2% Ac. Acid / Mass Protein per Eluate Fraction, 3M NaCl / Mass Protein per Eluate Fraction, Flow / Percent Eluted by Fraction, 1M NaCl / Percent Eluted by Fraction, 2% Ac. Acid / Percent Eluted by Fraction, 3M NaCl / Percent Eluted by Fraction, Flow / Mass Protein per Eluate Fraction, 2% Acetic Acid / Percent Eluted by Fraction, 2% Acetic Acid: A1PI, 5 mg hSA + 1 mg A1PI; for Mass Protein per Eluate Fraction, 1M NaCl / Mass Protein per Eluate Fraction, 2% Ac. Acid / Mass Protein per Eluate Fraction, 3M NaCl / Mass Protein per Eluate Fraction, Flow / Mass Protein per Eluate Fraction, 2% Acetic Acid: * Below detection limit
In short: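 Mass balance by immunonephelometry of fractions from step elutions (1M NaCl, 3M NaCl, 2% acetic acid, neutralised with Tris) at 865 μl/min. Sample was a mixture of 1 mg A1PI and 5 mg hSA held 10 min on peptide-derivatised Toyopearl columns (0.1 mmole/g) at 4 °C or 20 °C.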

[3] = biological target: T1, A1PI; assay: Purification of A1PI from Effluent II+III on peptide column, A1PI mass balance; format: binding; conditions: A1PI, 1 ml Eff. II+III, 4° C.; for Mass Protein per Eluate Fraction, 1M NaCl / Mass Protein per Eluate Fraction, 2% Acetic Acid / Mass Protein per Eluate Fraction, Flow: * as in Tables 4, 5 (below detection limit)
In short: (§1)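 Feed: 1 ml Eff. II+III (20% EtOH, 20-25 mg/ml hSA, ~1 mg/ml A1PI). 10 min residence, then 865 μl/min; steps 1M NaCl / 3M NaCl / 2% acetic acid; 4° C. Mass balance per fraction.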

[4] = biological target: T2, apolipoprotein alpha-1 (Apo A-1) (Homo sapiens, UniProt P02647); assay: Purification from Effluent II+III, Apo A-1 mass balance; format: binding; conditions: 1 ml Eff. II+III, 4° C.
T2 construct: Eff; II+III is a process intermediate in the Cohn plasma fractionation process; tissue Bayer Corporation (Clayton, N.C.); host or cells: plasma fraction: Cohn Effluent II+III
In short: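 First, 1 ml of the ethanolic Cohn intermediate (20% ethanol, ~1 mg/ml A1PI) is injected and held for a 10 min residence time. Columns are then eluted stepwise at a constant 865 μl/min with 1M NaCl, 3M NaCl and finally 2% acetic acid, all at 4° C.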

[5] = system: Immunoglobulin A (IgA); assay: Purification from Effluent II+III, IgA mass balance; format: binding, human; conditions: 1 ml Eff. II+III, 4° C.; for Mass Protein per Eluate Fraction, 1M NaCl / Mass Protein per Eluate Fraction, 2% Acetic Acid / Mass Protein per Eluate Fraction, Flow: * as in Tables 4, 5 (below detection limit)
In short: as §1

[6] = system: Immunoglobulin G (IgG); assay: Purification from Effluent II+III, IgG mass balance; format: binding, human; conditions: 1 ml Eff. II+III, 4° C.; for Mass Protein per Eluate Fraction, 1M NaCl / Mass Protein per Eluate Fraction, Flow: * as in Tables 4, 5 (below detection limit)
In short: as §1

[7] = biological target: T1, A1PI; assay: Capture and elution of active A1PI with 2M urea buffer (elastase inhibition activity assay and immunonephelometry); format: binding; conditions: 4° C.; for Mass A1PI in Urea Eluate (mg), Activity / Mass A1PI in Urea Eluate (mg), Nephelometry: 1 mg A1PI, eluted with 2M urea, pH 6; for Mass A1PI in Urea Eluate (mg), Activity: elastase inhibition activity assay; for Mass A1PI in Urea Eluate (mg), Nephelometry: immunonephelometry; for Specific Activity: mass of A1PI by activity assay relative to immunonephelometry, urea eluate
[8] = 4° C., relative to total eluted
[9] = 20° C., relative to total eluted
[10] = * as in Tables 4, 5 (below detection limit)
[11] = Table 19, 4° C., relative to total loaded
[12] = Table 19, 20° C., relative to total loaded

T2 sequence (P02647 19-267): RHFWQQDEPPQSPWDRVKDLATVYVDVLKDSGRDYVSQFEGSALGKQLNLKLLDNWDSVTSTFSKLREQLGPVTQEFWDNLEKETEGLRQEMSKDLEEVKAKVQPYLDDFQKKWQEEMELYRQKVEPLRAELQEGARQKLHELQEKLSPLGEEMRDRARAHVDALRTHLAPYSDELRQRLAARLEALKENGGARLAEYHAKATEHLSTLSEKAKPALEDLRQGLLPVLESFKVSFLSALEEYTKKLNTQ
T1 sequence (P01009 25-418): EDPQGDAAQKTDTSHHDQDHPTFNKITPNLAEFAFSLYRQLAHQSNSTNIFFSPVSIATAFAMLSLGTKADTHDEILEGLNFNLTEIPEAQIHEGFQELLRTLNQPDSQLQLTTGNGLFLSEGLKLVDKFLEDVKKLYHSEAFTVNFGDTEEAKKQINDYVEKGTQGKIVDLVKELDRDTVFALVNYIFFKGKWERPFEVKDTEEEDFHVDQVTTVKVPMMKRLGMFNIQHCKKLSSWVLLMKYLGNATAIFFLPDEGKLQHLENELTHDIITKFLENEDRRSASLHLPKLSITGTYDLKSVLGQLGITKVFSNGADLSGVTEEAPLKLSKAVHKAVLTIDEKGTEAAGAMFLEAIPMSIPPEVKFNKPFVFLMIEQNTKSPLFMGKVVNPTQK

## PYWIVR
[1]; 4° C.
  Percent A1PI Eluted by Fraction Based on Absorbance at 280 nm, 1M NaCl: 74%
  Percent A1PI Eluted by Fraction Based on Absorbance at 280 nm, 2% Acetic Acid: 26%
  Percent A1PI Eluted by Fraction Based on Absorbance at 280 nm, Flowthrough: 0%
[1]; 20° C.
  Percent A1PI Eluted by Fraction, 1M NaCl: 55%
  Percent A1PI Eluted by Fraction, 2% Acetic Acid: 45%
  Percent A1PI Eluted by Fraction, Flowthrough: 0%
[2]; 250 μg AlPI injected with 5 mg hSA, 20° C.
  Mass AlPI Eluted in Acid Eluate: 0.09 mg
[2]; 500 μg AlPI injected with 5 mg hSA, 20° C.
  Mass AlPI Eluted in Acid Eluate: 0.21 mg
[2]; 1000 μg AlPI injected with 5 mg hSA, 20° C.
  Mass AlPI Eluted in Acid Eluate: 0.30 mg
[2]; 4° C.
  Mass Protein per Eluate Fraction, 1M NaCl: 0.31 mg
  Mass Protein per Eluate Fraction, 2% Ac. Acid: 0.19 mg
  Mass Protein per Eluate Fraction, 3M NaCl: 0.02 mg
  Mass Protein per Eluate Fraction, Flow: 0.19 mg
[2]; [8]
  Percent Eluted by Fraction, 1M NaCl: 44%
  Percent Eluted by Fraction, 2% Ac. Acid: 27%
  Percent Eluted by Fraction, 3M NaCl: 3%
  Percent Eluted by Fraction, Flow: 27%
[2]; 20° C.
  Mass Protein per Eluate Fraction, 1M NaCl: 0.32 mg
  Mass Protein per Eluate Fraction, 2% Ac. Acid: 0.38 mg
  Mass Protein per Eluate Fraction, 3M NaCl: 0.02 mg
  Mass Protein per Eluate Fraction, Flow: 0.07 mg
[2]; [9]
  Percent Eluted by Fraction, 1M NaCl: 41%
  Percent Eluted by Fraction, 2% Ac. Acid: 48%
  Percent Eluted by Fraction, 3M NaCl: 2%
  Percent Eluted by Fraction, Flow: 9%
[3]
  Percent Eluted by Fraction, 1M NaCl: 16%
  Percent Eluted by Fraction, 2% Acetic Acid: 29%
  Percent Eluted by Fraction, 3M NaCl: 0%
  Percent Eluted by Fraction, Flow: 56%
  Mass Protein per Eluate Fraction, 1M NaCl: 0.15 mg
  Mass Protein per Eluate Fraction, 2% Acetic Acid: 0.28 mg
  Mass Protein per Eluate Fraction, Flow: 0.55 mg
[4]
  Percent Eluted by Fraction, 1M NaCl: 60%
  Percent Eluted by Fraction, 2% Acetic Acid: 0%
  Percent Eluted by Fraction, 3M NaCl: 0%
  Percent Eluted by Fraction, Flow: 40%
[4]; [10]
  Mass Protein per Eluate Fraction, 1M NaCl: 0.34 mg
  Mass Protein per Eluate Fraction, Flow: 0.22 mg
[5]
  Percent Eluted by Fraction, 1M NaCl: 57%
  Percent Eluted by Fraction, 2% Acetic Acid: 22%
  Percent Eluted by Fraction, 3M NaCl: 0%
  Percent Eluted by Fraction, Flow: 21%
  Mass Protein per Eluate Fraction, 1M NaCl: 0.22 mg
  Mass Protein per Eluate Fraction, 2% Acetic Acid: 0.08 mg
  Mass Protein per Eluate Fraction, Flow: 0.08 mg
[6]
  Percent Eluted by Fraction, 1M NaCl: 10%
  Percent Eluted by Fraction, 2% Acetic Acid: 0%
  Percent Eluted by Fraction, 3M NaCl: 0%
  Percent Eluted by Fraction, Flow: 90%
  Mass Protein per Eluate Fraction, 1M NaCl: 0.03 mg
  Mass Protein per Eluate Fraction, Flow: 0.30 mg
[7]
  Mass A1PI in Urea Eluate (mg), Activity: 0.37 mg
  Mass A1PI in Urea Eluate (mg), Nephelometry: 0.49 mg
  Specific Activity: 0.75 mg/mg

## RAFWYI
[1]; 4° C.
  Percent A1PI Eluted by Fraction Based on Absorbance at 280 nm, 1M NaCl: 55%
  Percent A1PI Eluted by Fraction Based on Absorbance at 280 nm, 2% Acetic Acid: 45%
  Percent A1PI Eluted by Fraction Based on Absorbance at 280 nm, Flowthrough: 0%
[1]; 20° C.
  Percent A1PI Eluted by Fraction, 1M NaCl: 72%
  Percent A1PI Eluted by Fraction, 2% Acetic Acid: 28%
  Percent A1PI Eluted by Fraction, Flowthrough: 0%
[2]; 4° C.
  Mass Protein per Eluate Fraction, 1M NaCl: 0.19 mg
  Mass Protein per Eluate Fraction, 2% Ac. Acid: 0.45 mg
  Mass Protein per Eluate Fraction, Flow: 0.26 mg
[2]; [8]
  Percent Eluted by Fraction, 1M NaCl: 21%
  Percent Eluted by Fraction, 2% Ac. Acid: 50%
  Percent Eluted by Fraction, 3M NaCl: 0%
  Percent Eluted by Fraction, Flow: 29%
[2]; 20° C.
  Mass Protein per Eluate Fraction, 1M NaCl: 0.14 mg
  Mass Protein per Eluate Fraction, 2% Ac. Acid: 0.54 mg
  Mass Protein per Eluate Fraction, Flow: 0.09 mg
[2]; [9]
  Percent Eluted by Fraction, 1M NaCl: 19%
  Percent Eluted by Fraction, 2% Ac. Acid: 70%
  Percent Eluted by Fraction, 3M NaCl: 0%
  Percent Eluted by Fraction, Flow: 11%
[3]
  Percent Eluted by Fraction, 1M NaCl: 4%
  Percent Eluted by Fraction, 2% Acetic Acid: 80%
  Percent Eluted by Fraction, 3M NaCl: 0%
  Percent Eluted by Fraction, Flow: 17%
  Mass Protein per Eluate Fraction, 1M NaCl: 0.04 mg
  Mass Protein per Eluate Fraction, 2% Acetic Acid: 0.87 mg
  Mass Protein per Eluate Fraction, Flow: 0.18 mg
[4]
  Percent Eluted by Fraction, 1M NaCl: 0%
  Percent Eluted by Fraction, 2% Acetic Acid: 100%
  Percent Eluted by Fraction, 3M NaCl: 0%
  Percent Eluted by Fraction, Flow: 0%
[4]; [10]
  Mass Protein per Eluate Fraction, 2% Acetic Acid: 0.29 mg
[5]
  Percent Eluted by Fraction, 1M NaCl: 36%
  Percent Eluted by Fraction, 2% Acetic Acid: 29%
  Percent Eluted by Fraction, 3M NaCl: 0%
  Percent Eluted by Fraction, Flow: 35%
  Mass Protein per Eluate Fraction, 1M NaCl: 0.12 mg
  Mass Protein per Eluate Fraction, 2% Acetic Acid: 0.10 mg
  Mass Protein per Eluate Fraction, Flow: 0.12 mg
[6]
  Percent Eluted by Fraction, 1M NaCl: 9%
  Percent Eluted by Fraction, 2% Acetic Acid: 0%
  Percent Eluted by Fraction, 3M NaCl: 0%
  Percent Eluted by Fraction, Flow: 91%
  Mass Protein per Eluate Fraction, 1M NaCl: 0.02 mg
  Mass Protein per Eluate Fraction, Flow: 0.24 mg
[7]
  Mass A1PI in Urea Eluate (mg), Activity: 0.62 mg
  Mass A1PI in Urea Eluate (mg), Nephelometry: 0.71 mg
  Specific Activity: 0.87 mg/mg

## RVLFIH: reversed sequence of VIFLVR with C-terminal His
[1]; 4° C.
  Percent AlPI Eluted by Fraction, 1M NaCl: 29%
  Percent AlPI Eluted by Fraction, 2% Acetic Acid: 71%
  Percent AlPI Eluted by Fraction, Flowthrough: 0%
[1]; 20° C.
  Percent AlPI Eluted by Fraction, 1M NaCl: 3%
  Percent AlPI Eluted by Fraction, 2% Acetic Acid: 97%
  Percent AlPI Eluted by Fraction, Flowthrough: 0%
[2]; Table 19, 4° C.
  Mass Protein per Eluate Fraction, 1M NaCl: 0.14 mg
  Mass Protein per Eluate Fraction, 2% Acetic Acid: 0.43 mg
  Mass Protein per Eluate Fraction, Flow: 0.31 mg
[2]; [11]
  Percent Eluted by Fraction, 1M NaCl: 16%
  Percent Eluted by Fraction, 2% Acetic Acid: 49%
  Percent Eluted by Fraction, 3M NaCl: 0%
  Percent Eluted by Fraction, Flow: 35%
[2]; Table 19, 20° C.
  Mass Protein per Eluate Fraction, 1M NaCl: 0.00 mg
  Mass Protein per Eluate Fraction, 2% Acetic Acid: 0.65 mg
  Mass Protein per Eluate Fraction, Flow: 0.09 mg
[2]; [12]
  Percent Eluted by Fraction, 1M NaCl: 0%
  Percent Eluted by Fraction, 2% Acetic Acid: 88%
  Percent Eluted by Fraction, 3M NaCl: 0%
  Percent Eluted by Fraction, Flow: 12%
[7]
  Mass A1PI in Urea Eluate (mg), Activity: 0.56 mg
  Mass A1PI in Urea Eluate (mg), Nephelometry: 0.71 mg
  Specific Activity: 0.79 mg/mg
